T1: mouse CD300c antigen (mouse)
T1 sequence (A2A7V7 whole entry, looked up): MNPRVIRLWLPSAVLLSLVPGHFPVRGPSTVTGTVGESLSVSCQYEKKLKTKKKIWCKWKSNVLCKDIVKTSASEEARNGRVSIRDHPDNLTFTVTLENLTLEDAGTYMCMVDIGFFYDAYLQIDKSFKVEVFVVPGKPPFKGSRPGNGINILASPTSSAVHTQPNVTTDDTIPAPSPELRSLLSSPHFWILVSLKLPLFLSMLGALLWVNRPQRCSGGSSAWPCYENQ

T2: CD300a antigen (12449-H08H, Sino Biological) (UniProt Q9UGN4 18-180)
T2 construct: Bought recombinant antigen
T2 sequence (looked up): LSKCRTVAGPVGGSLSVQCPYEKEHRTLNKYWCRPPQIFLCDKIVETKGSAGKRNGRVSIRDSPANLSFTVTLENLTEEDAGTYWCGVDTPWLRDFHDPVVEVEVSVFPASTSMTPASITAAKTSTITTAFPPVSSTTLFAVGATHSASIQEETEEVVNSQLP


Assays:
mouse CD300c antigen = molecular target: T1, mouse CD300c antigen; assay: cell-based or functional assay
[1] = molecular target: T2, CD300a antigen (12449-H08H, Sino …); assay: binding ELISA with CD300a antigen
Description: To identify the antigen-binding ability of the anti-CD300c monoclonal antibody produced in Example 1, binding ELISA was performed. Specifically, each of the CD300c antigen (11832-H08H, Sino Biological) or CD300a antigen (12449-H08H, Sino Biological) in a coating buffer (0.1 M sodium carbonate, pH 9.0) was dispensed onto an ELISA plate at a concentration of 8 μg/mL per well, and then reaction was allowed to proceed at room temperature for 3 hours so that the antigen was bound to the plate. Washing was performed 3 times using phosphate buffered saline-Tween 20 (PBST) to remove unbound antigen, and then 300 μL of PBST supplemented with 5% bovine serum albumin (BSA) was added to each well. Reaction was allowed to proceed at room temperature for 1 hour, and washing was performed again using PBST. Then, the anti-CD300c monoclonal antibody was diluted in quadruplicate and added thereto. Reaction was allowed to proceed for 1 hour at room temperature for antigen binding. After 1 hour, washing was performed 3 times using PBST to remove unbound anti-CD300c monoclonal antibody, and then 4 μg/mL of an antibody for detection (HRP conjugated anti-Fc IgG) was added. […] Then, 2 N sulfuric acid solution was added to terminate the development, and the absorbance was measured at 450 nm to identify the antibodies that specifically bind to the CD300c antigen. […]

Row | cancer cell proliferation inhibitory effects (CT26 mouse colorectal cancer cell line, CCK-8), higher than the control group (mouse CD300c antigen) | Binder | binding result [1]
1 | 38% | anti-CD300c monoclonal antibody SL18 (antibody, V domains shown) VH: RVQLLESGGGLVQPGGSLRLSCAASGFTFSDYHMHWVRQAPGKGLEWVSTISSSGGYTYYAESVKSRFTISRDNSKNTLYLQMNSLRAEDTAVYYCARSIRLPLDYWGQGTLVTVSS VL: QSVLTQPPSASGTPGQRVTISCSGNNIGSKGVHWYQQLPGTAPKLLIYEDSKRPSGVRDRFSGSKSGTSASLAISGLRSEDEADYYCQSYDSTKGVVFGGGTKLTVL | –
2 | 66% | anti-CD300c monoclonal antibody CL7 (antibody, V domains shown, Full antibody from separate heavy and light chain vectors in 293T cells) VH: EVQLLESGGGLVQPGGSLRLSCAASGFTFSRYAMSWVRQAPGKGLEWVSAISGSGGSTYYADSVKGRFTISRDNSKNTLYLQMNSLRAEDTAVYYCARSSQGIFDIWGQGTLVTVSS VL: QSVLTQPPSASGTPGQRVTISCSGNNIGTRRVHWYQQLPDTAPKLLIYSKNNRPSGVPDRFSGSKSGTSASLAISGLRSEDEADYYCAAWDDSLSGPVFGGGTKLTVL | no binding (tested: 0.039, 0.63, and 10 µg/mL)
3 | 15% | anti-CD300c monoclonal antibody CL10 (antibody, V domains shown) VH: EVQLLESGGGLVQPGGSLRLSCAASGFTFSSYGMHWVRQAPGKGLEWVSAISGSGGSTYYADSVKGRFTISRDNSKNTLYLQMNSLRAEDTAVYYCASGYGLMDVWGQGTLVTVSS VL: QSVLTQPPSASGTPGQRVTISCTRSSGIIASNYVQWYQQLPGTAPKLLIYRNNQRPSGVPDRFSGSKSGTSASLAISGLRSEDEADYYCSSYAGNNNLVFGGGTKLTVL | –

Source: patent publication US20220305082A1 (CENTRICSBIO, published 2022)
